Results: paper PMC8599580, “Focused Proteomics Analysis of Habu Snake (Protobothrops flavoviridis) Venom Using Antivenom-Based Affinity Chromatography Reveals Novel Myonecrosis-Enhancing Activity of Thrombin-Like Serine Proteases” (Frontiers in Pharmacology, 2021)

T1: [Asp49] PLA2 (Protobothrops flavoviridis, UniProt P06859 17-138)
T1 construct: hemolytic [Asp49] phospholipase A2 of Protobothrops flavoviridis; source: prepared from habu (Protobothrops flavoviridis) crude venom
T1 sequence (looked up): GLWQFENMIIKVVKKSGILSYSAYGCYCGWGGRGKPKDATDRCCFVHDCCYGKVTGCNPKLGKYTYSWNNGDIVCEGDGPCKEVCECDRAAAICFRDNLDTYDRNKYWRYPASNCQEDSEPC

B1: [Lys49]PLA2 (BPII) (natural protein)
chain: SLVQLWKMIFQETGKEAAKNYGLYGCNCGVGRRGKPKDATDSCCYVHKCCYKKVTGCNPKMDSYSYSWKNKAIVCGEKNPPCLKQVCECDKAVAICLRENLGTYNKKYTIYPKPFCKKADTC
notes: [Lys49] phospholipase A2 BPII of Protobothrops flavoviridis; also called myonecrotic [Lys49]; PLA2; source: prepared from habu (Protobothrops flavoviridis) crude venom
B2: TLf2, thrombin-like serine protease TLSP2 (natural protein)
chain: IIGGDECNINEHRFLVALYTFRSRRLHCGGILINQEWVLSAARCNRKNIRIQLGMHSTNVINEDVQTRVPKEKFFCLSSKTHTRWNKDIMLIRLNSPVNNSTHIAPVSLPSNPPSLGSVCRVMGWGTISATKETHPDVPHCANINILDYSVCRAAYARLPATSRTLCAGILEGGKDSCKADSGGPLICNGEIQGIVSRGGHSCGQPRKPGLYTKVFDHLDWIKSIIAGNKDAICPP
notes: numbers count on: the mature protein; also called svSP02_TLf2; basic 30 kDa protein; source: purified from habu crude venom (CM-52 basic fraction #15, POROS HS column)
B3: TLf1 (flavoxobin) (enzyme, Protobothrops flavoviridis)
chain: VIGGDECNINEHPFLVALYDAWSGRFLCGGTLINPEWVLTAAHCDSKNFKMKLGAHSQKVLNEDEQIRNPKEKFICPNKKNTEVLDKDIMLIKLDSPVSYSEHIAPLSLPSSPPSVGSVCRIMGWGSITPVEETFPDVPHCANINLLDDVECKPGYPELLPEYRTLCAGVLQGGIDTCGFDSGTPLICNGQFQGIVYIGSHPCGQSRKPGIYTKVFDYNAWIQSIIAGNTAATCLP
notes: flavoxobin, thrombin-like serine protease of Protobothrops flavoviridis; also called svSP01_TLf1; flavoxovin; source: purified from habu crude venom (CM-52 flow-through, Hi-trap benzamidine column)
B4: [Lys49] PLA2 (BPII) (natural protein)
chain: B1 chain
notes: Basic protein II (BPII), [Lys49] phospholipase A2 myotoxin of Protobothrops flavoviridis venom; also called [Lys49]PLA2 myotoxin; myonecrotic [Lys49]; PLA2

Legend:
Conditions in all cases: both partners purified
[1] = biological target: B2; test: SPR; BIAcore X; TLf1 or TLf2 immobilised on a CM5 chip by amine coupling; BPII or [Asp49] PLA2 injected as analytes (12.5-100 ug/ml) in HBS (10 mM HEPES pH 7.4, 0.15 M NaCl, 3 mM EDTA, 0.005% surfactant P-20) at 20 uL/min; nonlinear least-squares fitting with BIAevaluation
[2] = biological target: B3; test: as above
[3] = biological target: T1, [Asp49] PLA2; test: as above
[4] = biological target: T2, thrombin-like serine protease TLSP2 (TLf2) (Protobothrops flavoviridis, UniProt O13057 25-260); test: SPR; BIAcore X; TLf2 or TLf1 amine-coupled on CM5 chip; BPII or [Asp49] PLA2 injected as analytes (12.5-100 ug/ml) in HBS (10 mM HEPES pH 7.4, 0.15 M NaCl, 3 mM EDTA, 0.005% P-20), 20 uL/min; unmodified CM5 as control; regeneration 10 mM HCl
T2 construct: also called svSP02_TLf2; basic 30 kDa protein; source: purified from habu (Protobothrops flavoviridis) crude venom (CM-52, POROS HS)

[5] = biological target: T3, flavoxobin (TLf1) (Protobothrops flavoviridis, UniProt P05620 25-260); test: as above
T3 construct: Flavoxobin (TLf1), thrombin-like serine protease of Protobothrops flavoviridis venom; also called flavoxovin; svSP01_TLf1

Row | Binder | Ka [3] | Kd [3] | koff [3] | kon [3] | other results
1 | B1 |  |  |  |  | Ka [1]: 1.02e+07 M⁻¹; koff [1]: 0.00122 s⁻¹; kon [1]: 12500 M⁻¹ s⁻¹; Ka [2]: 6.56e+06 M⁻¹; koff [2]: 0.00257 s⁻¹; kon [2]: 16900 M⁻¹ s⁻¹
2 | B2 | 7.9e+06 M⁻¹ | 127 nM | 0.000791 s⁻¹ | 6250 M⁻¹ s⁻¹ | 
3 | B3 | 371000 M⁻¹ | 2690 nM | 0.0125 s⁻¹ | 4660 M⁻¹ s⁻¹ | 
4 | B4 |  |  |  |  | Kd [4]: 97.9 nM; Kd [5]: 152 nM
